According to patent publication US20240327522A1 (Genentech, published 2024):

Columns and labels:
[1] = target: T1, recombinant rat αvβ8 protein (PARS-22180) (rat, UniProt F1LZX9 31-987; A0A0G2JVU1 43-682); assay: SPR, Biacore T200, antibody captured on Protein A chip, 3-fold analyte series 0-100 nM, 37 C, 1:1 model; average ± as printed
T1 construct: also called rat.aVb8
Method: (§1) The ability of the anti-αVP8-65 to bind to different αVβ8 proteins was assessed using SPR measurements (Karlsson et al. 1991) on a Biacore™ T200 (Cytiva Life Sciences; Marlborough, MA) instrument (Safsten et al. 2006). anti-αV08-65 was first captured on a Biacore™ Protein A biosensor chip (Cytiva Life Sciences) to achieve approximately 60 response units. Binding measurements were performed using a running buffer composed of 10 mM HEPES (pH 7.4), 150 mM NaCl, 0.5 mM CaCl₂), 0.5 mM MgCl₂, and 0.005% Surfactant P20 (Cytiva Life Sciences). A 3-fold dilution series of the analyte proteins (range, 0-100 nM in running buffer) was injected into the Biacore™ T200. All injections were performed over 180 seconds, with a dissociation time of 1200 seconds, at a flow rate of 100 μL/minute and a temperature of 37° C. Between sample injections, 10 mM glycine (pH 1.5) was injected to regenerate the sensor chip (twice, over 30 seconds at 10 μL/minute for each injection). To determine the binding kinetics and affinity constants of anti-αVP8-65 to the various species of the αVβ8 protein, the signal from the reference flow cell (FC1, with only protein A on the surface) was “double referenced” by subtracting the signal observed after injecting the sample over FC1, followed by subtracting the signal observed after injecting only running buffer. The kinetic constants were calculated using non-linear regression fitting of the data, according to a 1:1 Langmuir binding model, using Biacore™ Evaluation Software (Cytiva Life Sciences) for anti-αVP8-65 binding to recombinant human, cynomolgus monkey, mouse, and rat αVβ8 proteins.

[2] = target: T2, recombinant human αvβ8 protein (PARS-17102) (human); assay: as above
T2 construct: also called hu.aVb8.17102; not shown: C-terminal acid/basic coils and any purification tags
T2 alpha: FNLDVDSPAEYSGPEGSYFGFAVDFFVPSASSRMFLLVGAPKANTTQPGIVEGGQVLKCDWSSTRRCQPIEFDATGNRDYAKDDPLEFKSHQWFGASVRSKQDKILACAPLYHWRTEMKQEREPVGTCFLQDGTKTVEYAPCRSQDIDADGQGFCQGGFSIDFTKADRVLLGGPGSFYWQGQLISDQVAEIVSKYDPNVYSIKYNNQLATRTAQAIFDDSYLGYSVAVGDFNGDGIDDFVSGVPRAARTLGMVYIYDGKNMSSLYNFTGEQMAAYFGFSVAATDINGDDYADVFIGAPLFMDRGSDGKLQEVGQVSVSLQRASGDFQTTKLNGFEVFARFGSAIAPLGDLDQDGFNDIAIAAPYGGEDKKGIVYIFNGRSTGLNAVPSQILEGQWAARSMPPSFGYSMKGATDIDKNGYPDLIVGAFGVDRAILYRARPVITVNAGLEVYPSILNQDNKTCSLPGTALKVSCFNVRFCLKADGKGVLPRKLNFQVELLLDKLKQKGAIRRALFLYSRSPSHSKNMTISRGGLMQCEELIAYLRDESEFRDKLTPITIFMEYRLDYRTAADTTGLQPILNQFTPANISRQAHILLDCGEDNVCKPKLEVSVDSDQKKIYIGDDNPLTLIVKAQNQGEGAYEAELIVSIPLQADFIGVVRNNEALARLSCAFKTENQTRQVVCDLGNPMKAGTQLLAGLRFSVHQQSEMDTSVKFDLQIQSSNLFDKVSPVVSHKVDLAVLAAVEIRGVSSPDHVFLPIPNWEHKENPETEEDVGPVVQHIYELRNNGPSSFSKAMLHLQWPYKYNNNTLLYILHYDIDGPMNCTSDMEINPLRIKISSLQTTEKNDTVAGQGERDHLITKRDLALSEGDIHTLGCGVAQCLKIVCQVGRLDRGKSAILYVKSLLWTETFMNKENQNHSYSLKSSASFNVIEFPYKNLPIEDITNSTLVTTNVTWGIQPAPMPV
T2 beta: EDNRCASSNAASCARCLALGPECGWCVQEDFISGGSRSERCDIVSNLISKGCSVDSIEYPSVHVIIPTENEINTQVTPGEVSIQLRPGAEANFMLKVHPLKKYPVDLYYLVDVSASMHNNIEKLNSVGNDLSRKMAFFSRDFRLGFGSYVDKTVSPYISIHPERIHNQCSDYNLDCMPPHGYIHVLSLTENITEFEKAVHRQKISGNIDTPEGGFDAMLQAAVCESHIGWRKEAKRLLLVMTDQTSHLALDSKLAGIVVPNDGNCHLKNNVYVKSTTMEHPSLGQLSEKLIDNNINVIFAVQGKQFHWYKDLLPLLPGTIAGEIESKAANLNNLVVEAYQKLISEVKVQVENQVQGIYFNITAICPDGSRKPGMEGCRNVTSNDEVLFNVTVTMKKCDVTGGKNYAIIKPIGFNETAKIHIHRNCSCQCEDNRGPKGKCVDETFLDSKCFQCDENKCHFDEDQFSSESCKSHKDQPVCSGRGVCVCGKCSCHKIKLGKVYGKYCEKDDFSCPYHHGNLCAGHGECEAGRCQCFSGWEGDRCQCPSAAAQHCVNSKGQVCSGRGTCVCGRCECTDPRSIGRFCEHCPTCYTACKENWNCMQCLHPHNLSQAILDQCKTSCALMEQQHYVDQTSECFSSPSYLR
Method: as §1

[3] = target: T3, recombinant mouse αvβ8 protein (PARS-17103) (murine, UniProt P43406 31-988; Q0VBD0 43-681, limits assumed); assay: SPR binding assay, experiment 1, antibody as ligand, aVb8 as sample
T3 construct: Made in house; also called mu.aVb8.17103

[4] = target: T4, recombinant cynomolgus monkey αvβ8 protein (PARS-19393) (cynomolgus monkey, UniProt A0A2K5WCD3 31-992; G7P0S0 43-684); assay: as above
T4 construct: also called cyno.aVb8-19393; cyno.aVb8

[5] = target: T2, recombinant human αvβ8 protein …; assay: as above

T3 sequence (P43406 31-988 limits assumed, chain 1 of 2): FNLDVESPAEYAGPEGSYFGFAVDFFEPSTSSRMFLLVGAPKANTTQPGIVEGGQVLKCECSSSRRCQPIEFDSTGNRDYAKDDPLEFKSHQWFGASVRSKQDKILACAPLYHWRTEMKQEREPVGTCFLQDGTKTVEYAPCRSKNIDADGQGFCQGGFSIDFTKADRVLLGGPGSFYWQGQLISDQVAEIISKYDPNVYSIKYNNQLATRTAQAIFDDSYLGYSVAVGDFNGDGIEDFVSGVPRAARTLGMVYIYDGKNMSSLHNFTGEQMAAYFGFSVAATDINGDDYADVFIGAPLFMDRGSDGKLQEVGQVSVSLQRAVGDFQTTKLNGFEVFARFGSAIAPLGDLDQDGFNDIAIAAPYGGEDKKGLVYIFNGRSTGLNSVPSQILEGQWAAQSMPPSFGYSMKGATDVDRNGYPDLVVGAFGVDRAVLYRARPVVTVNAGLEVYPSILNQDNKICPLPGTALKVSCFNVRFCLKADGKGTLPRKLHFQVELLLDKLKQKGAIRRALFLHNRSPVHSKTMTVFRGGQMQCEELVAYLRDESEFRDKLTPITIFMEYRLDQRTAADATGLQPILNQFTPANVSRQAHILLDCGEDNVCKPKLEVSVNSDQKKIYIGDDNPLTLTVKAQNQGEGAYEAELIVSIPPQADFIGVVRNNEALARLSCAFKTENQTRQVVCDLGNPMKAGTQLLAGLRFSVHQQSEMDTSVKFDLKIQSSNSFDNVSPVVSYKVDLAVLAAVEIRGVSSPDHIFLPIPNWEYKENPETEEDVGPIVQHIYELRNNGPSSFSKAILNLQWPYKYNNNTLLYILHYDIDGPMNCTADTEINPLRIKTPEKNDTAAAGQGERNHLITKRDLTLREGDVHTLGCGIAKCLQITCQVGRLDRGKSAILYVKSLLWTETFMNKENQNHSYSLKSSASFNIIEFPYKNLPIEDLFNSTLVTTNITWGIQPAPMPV
T3 sequence (Q0VBD0 43-681 limits assumed, chain 2 of 2): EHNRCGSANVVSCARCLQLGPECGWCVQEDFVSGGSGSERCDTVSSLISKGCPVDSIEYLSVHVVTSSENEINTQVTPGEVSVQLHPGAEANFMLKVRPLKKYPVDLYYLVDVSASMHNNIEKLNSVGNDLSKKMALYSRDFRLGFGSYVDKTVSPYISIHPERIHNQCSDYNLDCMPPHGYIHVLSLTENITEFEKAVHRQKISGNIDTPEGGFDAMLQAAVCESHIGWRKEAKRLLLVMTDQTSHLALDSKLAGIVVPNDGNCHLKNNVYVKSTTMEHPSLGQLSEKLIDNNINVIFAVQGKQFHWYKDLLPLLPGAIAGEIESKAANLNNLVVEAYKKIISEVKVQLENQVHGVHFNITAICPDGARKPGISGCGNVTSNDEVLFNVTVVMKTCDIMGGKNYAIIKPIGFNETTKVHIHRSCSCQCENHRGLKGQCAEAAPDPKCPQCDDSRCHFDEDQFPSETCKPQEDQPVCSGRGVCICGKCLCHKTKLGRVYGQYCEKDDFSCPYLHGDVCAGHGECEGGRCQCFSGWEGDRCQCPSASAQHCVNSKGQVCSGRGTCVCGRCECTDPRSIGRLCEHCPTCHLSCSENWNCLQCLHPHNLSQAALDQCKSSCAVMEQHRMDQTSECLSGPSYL

Kd [1]: 1000 pM
koff [1]: 0.00011 s⁻¹
kon [1]: 104000 M⁻¹ s⁻¹
Kd [2]: 500 pM
koff [2]: 8.8e-05 s⁻¹
kon [2]: 175000 M⁻¹ s⁻¹
Kd [3]: 906 pM
koff [3]: 0.000155 s⁻¹
kon [3]: 171000 M⁻¹ s⁻¹
Kd [4]: 480 pM
koff [4]: 0.000164 s⁻¹
kon [4]: 341000 M⁻¹ s⁻¹
Kd [5]: 384 pM
koff [5]: 0.000208 s⁻¹
kon [5]: 540000 M⁻¹ s⁻¹
B1: Hu.aVb8-65.H15L2 (aVb8-65.H15L2.hIgG1.LALAPG) (antibody, V domains shown)
VH: EVQLLESGGGLVQPGGSLRLSCAASGIDLSNYAMIWVRQAPGKGLEWVGIISSSDRIWYASWVKGRFTISRDNSKNTLYLQMNSLRAEDTAVYYCSRSVSNSYFDGWNLWGQGTLVTVSS
VL: DIQMTQSPSSVSASVGDRVTITCQASENINSLLAWYQQKPGKAPKLLIYRASTLASGVPSRFSGSGSGTDFTLTISSLQPEDFATYYCQSNYGFTGSGAFFYGFGQGTKVEIKR
notes: Human IgG1 LALAPG; also called PARS-20475-65 (IH) aVb8-65.H15L2.hIgG1.LALAPG; humanized αvβ8-65
